These are literature values, as cited in publication PMC10287730.

Broadly, the pKd is −log10 of the Kd, conventionally taken in molar units.

For this series, the target named is TLR4 (Homo sapiens) (UniProt O00206).

pKd: −log10 of the molar value.

Chain of Galectin-3 (P17931 2-250): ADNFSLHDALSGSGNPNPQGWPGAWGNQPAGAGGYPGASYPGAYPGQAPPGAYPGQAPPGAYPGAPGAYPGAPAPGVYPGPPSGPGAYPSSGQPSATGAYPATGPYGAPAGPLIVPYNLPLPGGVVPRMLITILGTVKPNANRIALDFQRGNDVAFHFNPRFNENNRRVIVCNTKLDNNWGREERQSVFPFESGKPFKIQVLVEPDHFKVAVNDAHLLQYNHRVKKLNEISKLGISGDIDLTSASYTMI
Chain of TLR4 (Homo sapiens) (O00206 24-839): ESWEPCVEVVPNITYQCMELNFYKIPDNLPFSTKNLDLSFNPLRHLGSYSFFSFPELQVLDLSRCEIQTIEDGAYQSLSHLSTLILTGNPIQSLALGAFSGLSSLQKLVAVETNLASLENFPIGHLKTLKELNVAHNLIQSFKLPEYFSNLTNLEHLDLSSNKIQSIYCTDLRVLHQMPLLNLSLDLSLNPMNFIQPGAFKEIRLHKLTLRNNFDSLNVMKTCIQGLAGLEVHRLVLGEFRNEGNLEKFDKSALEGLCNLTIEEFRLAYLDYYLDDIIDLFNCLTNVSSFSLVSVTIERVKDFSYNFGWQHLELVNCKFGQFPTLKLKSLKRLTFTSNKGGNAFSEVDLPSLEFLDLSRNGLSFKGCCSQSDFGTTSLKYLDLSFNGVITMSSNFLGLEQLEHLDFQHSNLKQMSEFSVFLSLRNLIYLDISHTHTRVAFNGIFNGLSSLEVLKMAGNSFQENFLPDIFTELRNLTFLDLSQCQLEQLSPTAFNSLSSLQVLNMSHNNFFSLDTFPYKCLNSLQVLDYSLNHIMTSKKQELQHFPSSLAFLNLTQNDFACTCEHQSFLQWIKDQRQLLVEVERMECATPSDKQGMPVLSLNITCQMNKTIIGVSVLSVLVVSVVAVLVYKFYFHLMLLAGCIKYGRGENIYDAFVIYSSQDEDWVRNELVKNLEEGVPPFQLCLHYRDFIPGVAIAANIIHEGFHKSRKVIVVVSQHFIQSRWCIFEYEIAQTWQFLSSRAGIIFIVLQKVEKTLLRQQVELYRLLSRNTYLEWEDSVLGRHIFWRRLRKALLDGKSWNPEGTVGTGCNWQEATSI

On to Galectin-3 (from UniProt P17931), for which the pKd is 6.00.
